From article PMC7179087 (Biochemistry, 2019)

Legend:
Conditions in all cases: adenylation; co-substrate ATP
PvfC-AWH6 = test: ATP-[…]PPi exchange, steady-state kinetics; type: biochemical, Pseudomonas fluorescens
PvfCPf0-1 = tested on: PvfCPf0-1
CC(C)[C@H](N)C(=O)O [1] = test: purified protein
CC(C)C[C@H](N)C(=O)O [2] = test: purified protein
CC[C@H](C)[C@H](N)C(=O)O [3] = test: purified protein
CC(C)[C@H](N)C(=O)O [4] = test: purified protein; type: biochemical, Pseudomonas entomophila
CC(C)C[C@H](N)C(=O)O [5] = test: purified protein; type: biochemical, Pseudomonas entomophila
CC[C@H](C)[C@H](N)C(=O)O [6] = test: purified protein; type: biochemical, Pseudomonas entomophila

CC(C)C[C@H](N)C(=O)O [L-Leu]
Km (PvfC-AWH6): 2100 ± 600 µM

CC(C)[C@H](N)C(=O)O [L-Val]
Km (PvfCPf0-1): 2400 ± 800 µM

PvfCL48 (Pseudomonas entomophila L48)
Km (CC(C)[C@H](N)C(=O)O [1]): 1200 ± 800 µM | kcat (CC(C)[C@H](N)C(=O)O [1]): 13.1 ± 0.7 s⁻¹ | kcat/Km (CC(C)[C@H](N)C(=O)O [1]): 11000 M⁻¹ s⁻¹ | Km (CC(C)C[C@H](N)C(=O)O [2]): 7000 ± 3000 µM | kcat (CC(C)C[C@H](N)C(=O)O [2]): 0.65 ± 0.1 s⁻¹ | kcat/Km (CC(C)C[C@H](N)C(=O)O [2]): 93 M⁻¹ s⁻¹ | Km (CC[C@H](C)[C@H](N)C(=O)O [3]): 8000 ± 2000 µM | kcat (CC[C@H](C)[C@H](N)C(=O)O [3]): 1.3 ± 0.2 s⁻¹ | kcat/Km (CC[C@H](C)[C@H](N)C(=O)O [3]): 160 M⁻¹ s⁻¹

PvfCL48 (Pseudomonas entomophila L48; A381S/I467L/L384I/V444M)
Km (CC(C)[C@H](N)C(=O)O [4]): 1200 ± 700 µM | kcat (CC(C)[C@H](N)C(=O)O [4]): 0.03 ± 0.01 s⁻¹ | kcat/Km (CC(C)[C@H](N)C(=O)O [4]): 25 M⁻¹ s⁻¹ | Km (CC(C)C[C@H](N)C(=O)O [5]): 15000 ± 9000 µM | kcat (CC(C)C[C@H](N)C(=O)O [5]): 2.2 ± 0.8 s⁻¹ | kcat/Km (CC(C)C[C@H](N)C(=O)O [5]): 150 M⁻¹ s⁻¹

PvfCL48 (Pseudomonas entomophila L48; V444I)
Km (CC(C)[C@H](N)C(=O)O [4]): 1500 ± 200 µM | kcat (CC(C)[C@H](N)C(=O)O [4]): 10.7 ± 0.5 s⁻¹ | kcat/Km (CC(C)[C@H](N)C(=O)O [4]): 7100 M⁻¹ s⁻¹ | Km (CC(C)C[C@H](N)C(=O)O [5]): 3000 ± 1000 µM | kcat (CC(C)C[C@H](N)C(=O)O [5]): 0.71 ± 0.09 s⁻¹ | kcat/Km (CC(C)C[C@H](N)C(=O)O [5]): 240 M⁻¹ s⁻¹ | Km (CC[C@H](C)[C@H](N)C(=O)O [6]): 3700 ± 700 µM | kcat (CC[C@H](C)[C@H](N)C(=O)O [6]): 1.2 ± 0.09 s⁻¹ | kcat/Km (CC[C@H](C)[C@H](N)C(=O)O [6]): 320 M⁻¹ s⁻¹
